Measured values published in patent US20240254222A1 (Bayer, published 2024).

T1: Pig Semaphorin3A-Sema Domain, TPP-20176 (pig, UniProt Q63548 21-569 (rat entry))
T1 construct: produced inhouse
T1 chain: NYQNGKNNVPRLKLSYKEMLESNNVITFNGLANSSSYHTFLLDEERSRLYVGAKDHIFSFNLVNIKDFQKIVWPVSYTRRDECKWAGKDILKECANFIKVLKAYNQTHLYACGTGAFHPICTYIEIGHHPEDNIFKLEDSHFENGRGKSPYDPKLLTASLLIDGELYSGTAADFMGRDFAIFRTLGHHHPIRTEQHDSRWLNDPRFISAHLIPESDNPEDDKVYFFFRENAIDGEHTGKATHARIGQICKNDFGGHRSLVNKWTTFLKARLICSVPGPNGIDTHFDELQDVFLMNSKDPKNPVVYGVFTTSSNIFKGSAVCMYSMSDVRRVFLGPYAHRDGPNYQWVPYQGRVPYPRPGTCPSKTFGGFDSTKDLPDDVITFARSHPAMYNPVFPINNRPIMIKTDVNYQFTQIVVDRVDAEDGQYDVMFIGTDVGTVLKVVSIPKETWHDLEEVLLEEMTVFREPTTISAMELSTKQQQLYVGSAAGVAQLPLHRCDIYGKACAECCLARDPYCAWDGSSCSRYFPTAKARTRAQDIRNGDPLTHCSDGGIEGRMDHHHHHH

T2: Mouse Semaphorin3A-Sema Domain, TPP-19069 (mouse, UniProt O08665 21-569)
T2 construct: produced inhouse
T2 sequence: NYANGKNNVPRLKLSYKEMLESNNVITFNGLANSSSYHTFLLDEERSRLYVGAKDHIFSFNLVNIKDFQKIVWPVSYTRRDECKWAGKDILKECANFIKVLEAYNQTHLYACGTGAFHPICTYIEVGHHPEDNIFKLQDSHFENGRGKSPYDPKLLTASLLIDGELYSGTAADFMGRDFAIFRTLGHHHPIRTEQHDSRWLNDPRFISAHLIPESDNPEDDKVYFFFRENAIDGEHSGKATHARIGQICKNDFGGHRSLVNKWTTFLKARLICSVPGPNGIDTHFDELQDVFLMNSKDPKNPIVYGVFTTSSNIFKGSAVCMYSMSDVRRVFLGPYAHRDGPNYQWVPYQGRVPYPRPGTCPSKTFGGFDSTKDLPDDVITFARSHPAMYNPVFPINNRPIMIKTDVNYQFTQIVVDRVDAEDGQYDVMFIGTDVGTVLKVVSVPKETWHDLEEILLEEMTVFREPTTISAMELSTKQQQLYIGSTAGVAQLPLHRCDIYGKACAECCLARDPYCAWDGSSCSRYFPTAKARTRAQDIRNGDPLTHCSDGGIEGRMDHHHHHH

T3: Human Semaphorin3A-Sema Domain, TPP-19068 (human, UniProt Q14563 21-569)
T3 construct: produced inhouse in HEK293-6E; also called human monovalent Sema3A domain
T3 sequence: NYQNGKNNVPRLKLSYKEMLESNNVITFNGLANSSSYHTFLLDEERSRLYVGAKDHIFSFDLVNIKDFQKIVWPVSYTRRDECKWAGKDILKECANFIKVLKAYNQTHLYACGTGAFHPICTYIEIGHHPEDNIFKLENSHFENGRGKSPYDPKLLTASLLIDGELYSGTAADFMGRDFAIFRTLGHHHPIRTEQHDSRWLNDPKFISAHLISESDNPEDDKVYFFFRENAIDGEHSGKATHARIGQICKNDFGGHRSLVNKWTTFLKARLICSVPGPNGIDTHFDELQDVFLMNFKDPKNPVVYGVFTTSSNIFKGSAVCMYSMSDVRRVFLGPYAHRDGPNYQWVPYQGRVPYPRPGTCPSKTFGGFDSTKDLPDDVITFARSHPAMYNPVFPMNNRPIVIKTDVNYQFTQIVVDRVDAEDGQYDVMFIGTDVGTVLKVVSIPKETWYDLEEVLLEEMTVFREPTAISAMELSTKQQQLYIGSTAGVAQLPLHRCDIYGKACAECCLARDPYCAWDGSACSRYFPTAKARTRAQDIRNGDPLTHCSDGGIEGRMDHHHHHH

T4: Dog Semaphorin3A-Sema Domain, TPP-19121 (dog, UniProt Q63548 21-569 (rat entry), limits assumed)
T4 construct: produced inhouse
T4 chain: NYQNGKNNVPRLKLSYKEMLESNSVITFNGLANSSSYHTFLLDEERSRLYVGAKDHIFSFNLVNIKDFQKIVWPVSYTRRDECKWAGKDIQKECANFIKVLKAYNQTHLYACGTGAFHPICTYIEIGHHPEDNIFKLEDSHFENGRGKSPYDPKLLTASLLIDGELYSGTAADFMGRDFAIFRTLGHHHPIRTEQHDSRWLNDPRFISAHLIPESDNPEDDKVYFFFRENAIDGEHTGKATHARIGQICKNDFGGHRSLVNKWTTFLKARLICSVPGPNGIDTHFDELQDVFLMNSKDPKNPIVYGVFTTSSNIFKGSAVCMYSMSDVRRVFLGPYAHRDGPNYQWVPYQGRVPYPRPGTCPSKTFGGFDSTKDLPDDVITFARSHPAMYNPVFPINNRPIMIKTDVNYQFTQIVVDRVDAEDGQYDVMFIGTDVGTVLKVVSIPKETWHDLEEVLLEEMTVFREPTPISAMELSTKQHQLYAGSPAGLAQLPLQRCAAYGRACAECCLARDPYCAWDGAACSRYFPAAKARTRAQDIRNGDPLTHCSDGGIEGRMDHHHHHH


What was measured:
Assay in all cases: SPR, captured antibody, Sema3A domain analyte
[1] = target: T1, Pig Semaphorin3A-Sema Domain, TPP-20176
Experimental: (§1) To assess the binding activity of anti-Sema3A antibodies binding assays were conducted using surface plasmon resonance (SPR). Binding assays were performed on a Biacore T200 instrument (Cytiva) at 25° C. using assay buffer HBS P+, 300 mM NaCl, 0.75 mM CaCl₂, 2.5 mM MgCl₂, 1 mg/ml BSA, 0.05% NaN₃. Antibodies were captured via anti-human Fc IgGs (“Human antibody capture kit”, Order No. BR100839, Cytiva) covalently amine coupled to a Series S CM5 sensor chip (Cytiva). The amine coupling was carried out according to the manufacturer's instructions using 1-ethyl-3-(3-dimethylaminopropyl) carbodiimide hydrochloride (EDC), N-hydroxysuccinimide (NHS) and ethanolamine HCl, pH 8.5 (“Amine Coupling Kit” BR-1000-50, Cytiva.). Human, mouse, cynomolgus, rat, dog and pig monovalent Sema3A domain were used as analytes in a concentration series from 0.024-3.125 nM in multi cycle kinetics mode. The sensor surface was regenerated with glycine pH 2.0 after each antigen injection. Obtained sensorgrams were double referenced (subtraction of reference flow cell signal and buffer injection) and were fitted to a 1:1 Langmuir binding model using the Biacore T200 Evaluation software obtaining the experimental fitted RMax value. To calculate the binding activity first the theoretical RMax needs to be calculated according to equation 1: […]
(§2) Binding activity was determined by dividing the experimental determined RMax by the theoretical calculated RMax according to equation 2: […]

[2] = target: T2, Mouse Semaphorin3A-Sema Domain, …
Experimental: as §1, §2

[3] = target: T3, Human Semaphorin3A-Sema Domain, …
Experimental: as §1, §2

[4] = target: T4, Dog Semaphorin3A-Sema Domain, TPP-19121
Experimental: as §1, §2

Binder | Binding Activity [%] [1] [%] | Binding Activity [%] [2] [%] | Binding Activity [%] [3] [%] | Binding Activity [%] [4] [%]
TPP-23298 (antibody, human IgG4 S228P, lambda, V domains shown) VH: EVQLLESGGGLVQPGGSLRLSCAASGFTFYSYAMSWVRQAPGKGLEWVSAIGTGGDTYYADSVKGRFTISRDNSKNTLYLQMNSLRAEDTAVYYCARRDDYTSRDAFDYWGQGTLVTVSS VL: not shown | 107 | 108 | 107 | 107
TPP-15370 (antibody, human IgG1, lambda, V domains shown, human IgG1; also called IgG1, hit from panning; parental mAb) VH: EVQLLESGGGLVQPGGSLRLSCAASGFTFSSYGMHWVRQAPGKGLEWVSAIGTGGDTYYADSVMGRFTISRDNSKNTLYLQMNSLRAEDTAVYYCARRDDYTSRDAFDVWGQGTLVTVSS VL: not shown | 111 | 11 | 112 | 114
TPP-15374 (antibody, human IgG1, lambda, V domains shown, human IgG1; also called IgG1, hit from panning; parental mAb) VH: EVQLLESGGGLVQPGGSLRLSCAASGFTFSSYEMNWVRQAPGKGLEWVSGISWNSGSIGYADSVKGRFTISRDNSKNTLYLQMNSLRAEDTAVYYCARSGYSSSWFDPDFDYWGQGTLVTVSS VL: QSVLTQPPSASGTPGQRVTISCTGSSSNIGAGYDVHWYQQLPGTAPKLLIYGNSNRPSGVPDRFSGSKSGTSASLAISGLRSEDEADYYCSSYAGSNPYVVFGGGTKLTVLG | 103 | 106 | 10 | 98
TPP-11489 (antibody, human IgG1, lambda, human IgG1; also called Chiome; Chiome Prior Art (hIgG1)) heavy: not shown light: SYELTQPPSVSVSPGQTARITCSGGGSYTGSYYYGWYQQKPGQAPVTVIYYNNKRPSDIPERFSGSLSGTTNTLTISGVQAEDEADYYCGSADNSGDAFGTGTKVTVLGQPKAAPSVTLFPPSSEELQANKATLVCLISDFYPGAVTVAWKADSSPVKAGVETTTPSKQSNNKYAASSYLSLTPEQWKSHRSYSCQVTHEGSTVEKTVAPTECS | 77 | 118 | 38 | 22
TPP-17755 (antibody, human IgG1, lambda, V domains shown, also called Samsung; Samsung Prior Art F11) VH: EVQLLESGGGLVQTGGSLRLSCAASGFTFSDYAMSWVRQAPGKGLEWVSWIYYDSGSKYYADSVKGRFTISRDNSKNTLYLQMNSLRAEDTAVYYCAKLNGDFDYWGQGTLVTVSS VL: QSVLTQPPSASGTPGQRVTISCSGSSSNIGNNDVSWYQQLPGTAPKLLIYADSHRPSGVPDRFSGSKSGTSASLAISGLRSEDEADYYCGAWDSSLSGYVFGGGTKLTVLG | 60 | 57 | 55 | 55
TPP-30788 (antibody, human IgG1, kappa, V domains shown, prior art, WO 2020/225400; also called BI clone I; Böhringer (BI) Clone I) VH: EVQLVESGGGLVQPGGSLRLSCAASGFTFSSYYMSWVRQAPGKGLEWVSTIIKSGGYAYYPDSVKDRFTISRDNSKNTLYLQMSSLRAEDTAVYYCVRGGQGAMDYWGQGTTVTVSS VL: EIVLTQSPATLSLSPGERATLSCRASQSIGDYLHWYQQKPGQAPRLLIKYASQSISGIPARFSGSGSGTDFTLTITSLEPEDFAVYYCQQGYSFPYTFGGGTKLEIKR | 107 | 108 | 107 | 106
TPP-30789 (antibody, human IgG1, kappa, V domains shown, prior art, WO 2020/225400; also called BI clone II; Böhringer (BI) Clone II) VH: EVQLVESGGGLVQPGGSLRLSCAASGFPFSSYYMSWVRQAPGKGLEWVSTIIKSGGYAYYPDSVKDRFTISRDNSKNTLYLQMSSLRAEDTAVYYCVRGGQGAMDYWGQGTTVTVSS VL: EIVLTQSPATLSLSPGERATLSCRASQSIGDYLHWYQQKPGQAPRLLIKYASQSISGIPARFSGSGSGTDFTLTITSLEPEDFAVYYCQQGYSFPYTFGGGTKLEIKR | 103 | 103 | 106 | 102
TPP-30790 (antibody, human IgG1, kappa, V domains shown, prior art, WO 2020/225400; also called BI clone III; Böhringer (BI) Clone III) VH: EVQLVESGGGLVQLGGSLRLSCAASGFTFSSYYMSWVRQAPGKGLEWVSTIIKSGGYAYYPDSVKDRFTISRDNSKNTLYLQMNSLRAEDTAVYYCVKGGQGAMDYWGQGTTVTVSS VL: EIVLTQSPATLSLSPGERATLSCRASQSIGDYLHWYQQKPGQAPRLLIYYASQSISGIPARFSGSGSGTDFTLTISSLEPEDFAVYYCQQGYSFPYTFGGGTKLEIKR | 92 | 93 | 93 | 92
TPP-30791 (antibody, human IgG1, kappa, V domains shown, prior art, WO 2020/225400; also called BI clone IV; Böhringer (BI) Clone IV) VH: EVQLVESGGGLLQLGGSLRLSCAASGFTFSSYYMSWVRQAPGKGLEWVSTIIKSGGYAYYPDSVKDRFTISRDNSKNTLNLQMNSLRAEDTAVYYCVKGGQGAMDYWGQGTTVTVSS VL: EIVLTQSPATLSLSPGERATLSCRASQSIGDYLHWYQQKPGQAPRLLIKYASQSISGIPARFSGSGSGTDFTLTISSLEPEDFAVYYCQQGYSFPYTFGGGTKLEIKR | 105 | 107 | 107 | 106
